Measurements: PMC2690590 (2009)

B1: recombinant extracellular part of human invariant chain (positions 73–208) (domain or fragment)
chain: QQQGRLDKLTVTSQNLQLENLRMKLPKPPKPVSKMRMATPLLMQALPMGALPQGPMQNATKYGNMTEDHVMHLLQNADPLKVYPPLKGSFPENLRHLKNTMETIDWKVFESWMHHWLLFEMSRHSLEQKPTDAPPK
B2: C-terminal fragment of the invariant chain (positions 118–208), devoid of CLIP (domain or fragment)
chain: LPMGALPQGPMQNATKYGNMTEDHVMHLLQNADPLKVYPPLKGSFPENLRHLKNTMETIDWKVFESWMHHWLLFEMSRHSLEQKPTDAPPK

Biological target: DR1: DRA*0101(1–191)/DRB1*0101(1–198) (human)

| Binder | IC50 [nM] |
| --- | --- |
| B1 | 40 |
| B2 | 1700 |
| LPKPPKPVSKMRMATPLLMQALPM [CLIP peptide fragment of the invariant chain (positions 97–120)] | 40 |
| PKYVKQNTLKLAT [influenza hemagglutinin peptide HA306–318] | 34 |
